Where a SMILES comes first, the peptide text is derived from it.
Columns and labels:
[1] = system: malignant brain tumor cell line T98G; assay: Chromium 51 release cytotoxicity of peptide-stimulated CD8-positive T cells; assay type: cell-based, human; details: 10^5 T cells and 10^3 T98G cells, 4 hours
Description: In a 50-ml centrifuge tube, 10^5 cells of a malignant brain tumor cell line T98G, whose expression of PDS5A had been confirmed (Stein G H et al., J. Cell Physiol., 99: 43-54 (1979), purchased from ATCC), were collected, and 100 μCi of chromium 51 was added to the tube, followed by incubation at 37° C. for 2 hours. […] Thereafter, the amount of chromium 51 released from damaged tumor cells into the culture supernatant was measured, and thereby the cytotoxic activity of the CD8-positive T cells stimulated with each of the polypeptides shown in SEQ ID NOs:27 to 35 was calculated.
The cytotoxic activity was determined by, as described above, mixing 10^5 CD8-positive T cells stimulated and induced with each of the peptides of the present invention and 10^3 cells of a malignant brain tumor cell line T98G to which chromium 51 was incorporated; culturing the resultant for 4 hours; measuring the amount of chromium 51 released into the culture medium after the culturing; and calculating the cytotoxic activity of the CD8-positive T cells against T98G according to the following equation*. cytotoxic activity (%)=(Amount of chromium 51 released from T98G when CD8-positive T cells were added)/(Amount of chromium 51 released from the target cells to which 1N hydrochloric acid was added)×100. *Equation: […]

mammary gland tumor = assay: Anti-tumor effect of recombinant PDS5A protein in tumor-bearing dog, mammary gland tumor; assay type: in vivo; details: 500 μg protein with same amount of Freund's incomplete adjuvant, regional lymph node near tumor, 3 times at 1-week intervals; tumor about 500 mm^3 (dog-derived) or 1000 mm^3 (human-derived) at administration
Description: The anti-tumor effect of the recombinant protein described in Example 5 below in 3 individuals of tumor-bearing patient dogs (3 individuals having a mammary gland tumor) having a tumor mass in the epidermis was evaluated. Before administration, the antibody titer against the recombinant protein in the serum of each patient dog was measured by the method described in Example 5 (3), and, as a result, an antibody titer higher than that of a healthy dog was detected.
With 500 μg (2.5 ml) each of the recombinant PDS5A proteins (dog-derived and human-derived) purified as described above, the same amount of Freund's incomplete adjuvant (manufactured by Wako Pure Chemical Industries, Ltd.) was mixed to prepare 2 kinds of therapeutic agents for cancer, each of which was administered to a regional lymph node in the vicinity of the tumor a total of 3 times at 1-week intervals. […] On the other hand, in the negative control group to which PBS(−) was administered, the tumor volume, which had been about 800 mm^3 at the time of administration of PBS, became 1625 mm^3 on Day 21 after the administration.

perianal adenocarcinoma = assay: Anti-tumor effect of canine recombinant PDS5A protein in patient dog, perianal adenocarcinoma; assay type: in vivo; details: 500 μg protein with Freund's incomplete adjuvant, subcutaneous near tumor, 4 times at 1-week interval; tumor about 370 mm^3 at administration
Description: (§1) With 500 μg (2.5 ml) of the canine recombinant PDS5A protein purified as described in Example 5 below, the same amount of Freund's incomplete adjuvant (manufactured by Wako Pure Chemical Industries, Ltd.) was mixed to prepare a therapeutic agent for cancer, and this therapeutic agent was subcutaneously administered in the vicinity of the tumor in 1 individual each of patient dogs suffering from perianal adenocarcinoma and epidermal squamous cell carcinoma a total of 4 times at 1-week interval.

[2] = system: epidermal squamous cell carcinoma; assay: Anti-tumor effect of canine recombinant PDS5A protein in patient dog, epidermal squamous cell carcinoma; assay type: in vivo; details: 500 μg protein with Freund's incomplete adjuvant, subcutaneous near tumor, 4 times at 1-week interval; tumor about 280 mm^3 at administration
Description: as §1

Row | Molecule | cytotoxic activity of stimulated CD8-positive T cells against T98G [1] | day on which complete regression of the tumor was achieved (mammary gland tumor) | day on which complete regression of the tumor was achieved (perianal adenocarcinoma) | day on which complete regression of the tumor was achieved [2]
1 | CC(C)C[C@H](NC(=O)[C@H](CCCCN)NC(=O)[C@H](Cc1ccc(O)cc1)NC(=O)[C@H](C)NC(=O)[C@H](CO)NC(=O)[C@H](CS)NC(=O)[C@H](CS)NC(=O)[C@H](CCC(N)=O)NC(=O)[C@@H](N)CC(C)C)C(=O)O [SEQ ID NO:36] (H-LQCCSAYKL-OH) | no cytotoxic activity | – | – | –
2 | canine recombinant PDS5A protein: full-length canine PDS5A (SEQ ID NO:2) expressed in E. coli; given mixed with Freund's incomplete adjuvant (protein, listed as Canis familiaris, mixed with Freund's incomplete adjuvant) MDFTAQPKPATALCGVVSADGKIAYPPGVKEITDKITTDEMIKRLKMVVKTFMDMDQDSEDEKQQYLPLALHLASEFFLRNPNKDVRLLVACCLADIFRIYAPEAPYTSHDKLKDIFLFITRQLKGLEDTKSPQFNRYFYLLENLAWVKSYNICFELEDCNEIFIQLFRTLFSVINNSHNKKVQMHMLDLMSSIIMEGDGVTQELLDSILINLIPAHKNLNKQSFDLAKVLLKRTVQTIEACIANFFNQVLVLGRSSVSDLSEHVFDLIQELFAIDPHLLLSVMPQLEFKLKSNDGEERLAVVRLLAKLFGSKDSDLATQNRPLWQCFLGRFNDIHVPVRLESVKFASHCLMNHPDLAKDLTEYLKVRSHDPEEAIRHDVIVTIITAAKRDLALVNDQLLGFVRERTLDKRWRVRKEAMMGLAQLYKKYCLHGEAGKEAAEKVSWIKDKLLHIYYQNSIDDKLLVEKIFAQYLVPHNLETEERMKCLYYLYASLDPNAVKALNEMWKCQNMLRSHVRELLDLHKQPTSEANCSAMFGKLMTIAKNLPDPGKAQDFVKKFNQVLGDDEKLRSQLELLISPTCSCKQADVCVREIARKLANPKQPTNPFLEMVKFLLERIAPVHIDSEAISALVKLMNKSIEGTADDEEEGVSPDTAIRSGLELLKVLSFTHPTSFHSAETYESLLQCLRMEDDKVAEAAIQIFRNTGHKIETDLPQIRSTLIPILHQKAKRGTPHQAKQAVHCIHAIFTNKEVQLAQIFEPLSRSLNADVPEQLITPLVSLGHISMLAPDQFASPMKSVVANFIVKDLLMNDRSTGEKNGKLWSPDEEVSPEVLAKVQAIKLLVRWLLGMKNNQSKSANSTLRLLSAMLVSEGDLTEQKRISKSDMSRLRLAAGSAIMKLAQEPCYHEIITPEQFQLCALVINDECYQVRQIFAQKLHKALVKLLLPLEYMAIFALCAKDPVKERRAHARQCLLKNISIRREYIKQNPMATEKLLSLLPEYVVPYMIHLLAHDPDFTRSQDVDQLRDIKECLWFMLEVLMTKNENNSHAFMKKMAENIKLTKDAQSPDESKMNEKLYTVCDVALCVINSKSALCNADSPKDPVLPMKFFTQPEKDFCNDKSYISEETRVLLLTGKPKPAGVLGAVNKPLSATGRKPYVRSTGAETGSNINVNSELNPSTGNRSREQSSEAVETGVSENEENPVRIISVTPVKNIDPVKNKEINSDQTTQGNISSDRGKKRSVAAAGTENIQQKTDEKVDESGPPAPSKPRRGRRPKSESQGNATKNDDINKPLGKGRKRAAVSQESPGGLEAGNAKAPKLQDVAKKAVPAERQIDLQR | – | 13 days | 35 days | 42 days
